According to PMC8684725 (Molecular Biology of the Cell, 2021):

B1: unphosphorylated kinase domain of WNK3, WNK3 (118-409) (domain or fragment)
chain: not shown
B2: WNK1SA (WNK1/S382A), WNK1 (194-483) S382A, unphosphorylated kinase domain (domain or fragment)
chain: not shown

Tests used:
static light scattering = biological target: the molecule itself; assay: static light scattering
crystal structure = biological target: the molecule itself; assay: crystal structure

Protein | stoichiometry N (static light scattering) | binding result (crystal structure)
B1 | 2 | 
B2 |  | binds
